The record followed here is patent publication US20090311278A1, “Novel teleost derived antimicrobial polypeptides” (THE UNIVERSITY OF GEORGIA RESEARCH FOUNDATION, published 2009).

The target in this data set is T1, NCAMP-1 (histone H1X-like ODN binding protein), recombinant (Ictalurus punctatus).
T1 chain: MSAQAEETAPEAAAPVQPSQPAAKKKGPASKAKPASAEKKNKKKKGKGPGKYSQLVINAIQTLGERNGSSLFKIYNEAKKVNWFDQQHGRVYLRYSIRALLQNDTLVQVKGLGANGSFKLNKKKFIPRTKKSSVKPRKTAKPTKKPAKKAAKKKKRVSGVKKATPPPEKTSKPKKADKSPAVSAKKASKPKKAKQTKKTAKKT
The experiment in a line: Southwestern blot. Particulars: tags: C-terminal 6xHis (pET-21b, E. coli); label: biotin (3').

Description: Biotinylated ODNs were used to identify potential. DNA binding proteins in NCC membrane lysate preparations and to evaluate the ODN binding of recombinant NCAMP-1. Membrane lysates were prepared as indicated above. Purified recombinant NCAMP-1 was mixed with SDS-PAGE sample buffer (reducing) prior to electrophoresis. […] Membranes were blocked in Superblock (Pierce, Rockford Ill.) blocking solution with 0.05% Tween-20. ODN's were diluted in Superblock and added to membranes (1 h, room temperature). Membranes were washed (3×) in TBS with 0.5% Tween-20 (TBST). Neutraviden-HRP (Pierce) diluted in Superblock (minimum dilution 1:50000) was added and incubated for 30 min at room temperature. Blots were washed (3×) in TBST and were developed with enhanced chemiluminiscence (SuperSignal® West Pico Pierce, Rockford, Ill.).

On to TCGTCGTTGTCGTTGTCGTT (ssDNA) [CpG ODN], for which the binding result is “binds”.

Regarding TGCTGCTTGTGCTTGTGCTT (ssDNA) [GpC ODN], the binding result is given as “binds”.
